Assay results taken from PMC9599101 (Biosensors, 2022).

Experiments:
[1] = target: T1, recombinant SEB produced by BEVS (staphylococcal enterotoxin B, 6x His-tagged) (Staphylococcus aureus., UniProt P01552); assay: ELISA; conditions: both partners purified
T1 construct: not shown: His6, C-terminal, kept

[2] = target: T1, recombinant SEB produced by BEVS …; assay: BLI; conditions: both partners purified
[3] = target: natural SEB secreted from S. aureus strain SA2 (Staphylococcus aureus SA2 (bovine …, UniProt P01552, strain)); assay: ELISA; conditions: one partner purified
[4] = target: natural SEB secreted from S. aureus strain CCARM 3089 (Staphylococcus aureus CCARM 3089, UniProt P01552, strain); assay: ELISA; conditions: one partner purified

| Binder | EC50 [1] [nM] | Kd [2] [nM] | koff [2] [s⁻¹] | kon [2] [M⁻¹ s⁻¹] | binding result [3] | binding result [4] |
| --- | --- | --- | --- | --- | --- | --- |
| anti-SEB monoclonal antibody 2-7A (antibody, V domains shown, also called 2-7A mAb) VH: EVLLVESGGGLVQPGGSLRLSCATSGFTFTDYYMSWVRQPPGKALEWLGFIRNKANGYTTKYSASVKGRFTISRDNSQSILYLQMNTLRAEDSATYYCAKDNWEAYFDYWGQGTTLTVSS VL: DVVMTQTPLSLPVSLGDQASISCRSSQSIVHSNGNTYLEWYLQKPGQSPKLLIYKVSNRFSGVPDRFSGSGSGTDFTLKISRVEAEDLGVYYCFQGSHVPWTFGGGTKLELK | 13.5 | 0.55 | 7.02e-05 | 128000 |  |  |
| anti-SEB monoclonal antibody 4-7A (antibody, V domains shown, also called 4-7A mAb) VH: QVQMQQSGAELVRPGASVKLSCKASGYTFTNNWMNWVKQRPGQGLQWIGMIDPSDSETHYNQMFKDKASLTVDKSSSSAYMVLSSLTSEDSAVYYCARRALSYYGSNPTLFDYWGQGTTLTVSS VL: DIVMSQSPSSLAVSVGEKVTMSCKSSQSLLYSSNQKNYLAWYQQKPGQSPKLLIYWASTWESGVPDRFTGSGSGTNFTLTINSVKTEDLAVYYCQQYSGYPYTFGGGTKLELK | 14.5 | 1.55 | 0.000226 | 146000 |  |  |
| anti-SEB monoclonal antibody 11-7E (antibody, V domains shown, also called 11-7E mAb) VH: QVQLKESGPELVRPGVSVKISCKGSGYTFTDYAMHWVKQSHAKSLEWIGIISTYSGNTNYNQKFKAKATMTVDKSSSTAYMELARLTSEDSAIYYCAREGYYGSSRSFDVWGAGTTLTVSS VL: QIVLTQSPALMSASPGEKVTMTCSASSSVSYMYWYQQKPRSSPKPWIYLTSNLASGVPARFSGSGSGTSYSLTISSMEAEDAATYYCQQWSSNPLTFGAGTKLELK | 16.7 | 0.331 | 3.27e-05 | 99000 | binds | binds |
